# Results taken from patent US20240218067A1 (ONCOC4, published 2024).
# T1: human Siglec-10 on the cell surface (human, UniProt Q96LC7 17-697)
# T1 sequence (looked up): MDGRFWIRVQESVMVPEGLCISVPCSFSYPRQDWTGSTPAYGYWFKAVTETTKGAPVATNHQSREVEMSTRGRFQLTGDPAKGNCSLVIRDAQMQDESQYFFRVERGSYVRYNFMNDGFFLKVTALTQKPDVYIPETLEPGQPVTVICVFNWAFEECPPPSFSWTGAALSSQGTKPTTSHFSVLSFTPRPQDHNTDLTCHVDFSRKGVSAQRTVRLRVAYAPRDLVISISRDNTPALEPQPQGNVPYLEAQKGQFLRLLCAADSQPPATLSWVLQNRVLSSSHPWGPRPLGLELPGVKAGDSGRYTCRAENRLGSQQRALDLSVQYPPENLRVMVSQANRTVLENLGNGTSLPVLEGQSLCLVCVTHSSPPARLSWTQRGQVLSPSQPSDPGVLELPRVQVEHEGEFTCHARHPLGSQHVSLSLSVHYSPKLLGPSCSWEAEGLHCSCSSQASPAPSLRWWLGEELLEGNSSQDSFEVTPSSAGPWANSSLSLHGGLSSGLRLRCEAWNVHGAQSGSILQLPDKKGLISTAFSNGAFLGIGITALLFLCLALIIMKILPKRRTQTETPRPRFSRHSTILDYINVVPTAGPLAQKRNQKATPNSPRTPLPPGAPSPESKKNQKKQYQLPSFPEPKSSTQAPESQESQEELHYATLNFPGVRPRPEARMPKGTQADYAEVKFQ
# T2: Siglec-10 (Biacore analysis) (UniProt Q96LC7 17-546, limits assumed)
# T2 sequence (looked up): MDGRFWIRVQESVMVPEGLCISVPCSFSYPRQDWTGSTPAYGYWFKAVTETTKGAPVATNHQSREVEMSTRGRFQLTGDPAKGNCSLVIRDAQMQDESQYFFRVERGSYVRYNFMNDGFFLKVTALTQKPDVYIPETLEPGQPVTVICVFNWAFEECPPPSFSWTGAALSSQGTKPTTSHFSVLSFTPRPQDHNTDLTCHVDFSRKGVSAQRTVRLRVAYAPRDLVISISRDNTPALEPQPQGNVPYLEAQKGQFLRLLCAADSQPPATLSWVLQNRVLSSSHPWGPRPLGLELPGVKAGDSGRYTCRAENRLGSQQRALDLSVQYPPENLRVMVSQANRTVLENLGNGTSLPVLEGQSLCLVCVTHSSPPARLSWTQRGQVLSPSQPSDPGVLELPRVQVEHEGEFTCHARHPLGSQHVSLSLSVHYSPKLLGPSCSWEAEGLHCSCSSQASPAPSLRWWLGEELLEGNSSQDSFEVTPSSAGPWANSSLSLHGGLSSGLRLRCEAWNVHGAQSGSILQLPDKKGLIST
# Columns and labels:
# [1] = biological target: marmoset Siglec-10 on expi293 cells (marmoset) (UniProt F6WZ94); test: flow cytometry on live expi293 cells transfected with marmoset Siglec-10; FMO median 13762
# Sequence of marmoset Siglec-10 on expi293 cells (marmoset) (F6WZ94 entry or part of it): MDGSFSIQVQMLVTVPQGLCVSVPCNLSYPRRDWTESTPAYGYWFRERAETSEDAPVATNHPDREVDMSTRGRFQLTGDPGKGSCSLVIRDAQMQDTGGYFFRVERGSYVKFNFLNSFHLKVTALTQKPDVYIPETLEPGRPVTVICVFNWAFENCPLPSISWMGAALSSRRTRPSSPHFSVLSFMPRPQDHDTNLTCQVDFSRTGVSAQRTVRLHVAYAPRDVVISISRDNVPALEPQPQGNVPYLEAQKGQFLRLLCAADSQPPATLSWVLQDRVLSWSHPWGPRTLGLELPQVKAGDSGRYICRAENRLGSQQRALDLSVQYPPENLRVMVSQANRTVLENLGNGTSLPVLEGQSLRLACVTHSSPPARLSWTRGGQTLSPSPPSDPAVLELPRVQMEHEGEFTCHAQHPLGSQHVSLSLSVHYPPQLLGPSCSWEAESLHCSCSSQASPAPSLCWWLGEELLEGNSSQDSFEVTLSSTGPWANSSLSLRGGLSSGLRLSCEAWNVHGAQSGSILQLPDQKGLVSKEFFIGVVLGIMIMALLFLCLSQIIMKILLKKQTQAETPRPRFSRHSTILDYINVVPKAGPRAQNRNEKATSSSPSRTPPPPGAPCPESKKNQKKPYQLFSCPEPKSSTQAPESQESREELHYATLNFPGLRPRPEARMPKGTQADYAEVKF
# [2] = biological target: T1, human Siglec-10 on the cell surface; test: flow cytometry, human PBMC, B cells, fluorescently labeled ONC-841 (upper left quadrant)
# [3] = biological target: rhesus Siglec-10 on expi293 cells (rhesus) (UniProt F7GW74); test: flow cytometry on live expi293 cells transfected with rhesus Siglec-10; FMO median 13039
# Sequence of rhesus Siglec-10 on expi293 cells (rhesus) (F7GW74 entry or part of it): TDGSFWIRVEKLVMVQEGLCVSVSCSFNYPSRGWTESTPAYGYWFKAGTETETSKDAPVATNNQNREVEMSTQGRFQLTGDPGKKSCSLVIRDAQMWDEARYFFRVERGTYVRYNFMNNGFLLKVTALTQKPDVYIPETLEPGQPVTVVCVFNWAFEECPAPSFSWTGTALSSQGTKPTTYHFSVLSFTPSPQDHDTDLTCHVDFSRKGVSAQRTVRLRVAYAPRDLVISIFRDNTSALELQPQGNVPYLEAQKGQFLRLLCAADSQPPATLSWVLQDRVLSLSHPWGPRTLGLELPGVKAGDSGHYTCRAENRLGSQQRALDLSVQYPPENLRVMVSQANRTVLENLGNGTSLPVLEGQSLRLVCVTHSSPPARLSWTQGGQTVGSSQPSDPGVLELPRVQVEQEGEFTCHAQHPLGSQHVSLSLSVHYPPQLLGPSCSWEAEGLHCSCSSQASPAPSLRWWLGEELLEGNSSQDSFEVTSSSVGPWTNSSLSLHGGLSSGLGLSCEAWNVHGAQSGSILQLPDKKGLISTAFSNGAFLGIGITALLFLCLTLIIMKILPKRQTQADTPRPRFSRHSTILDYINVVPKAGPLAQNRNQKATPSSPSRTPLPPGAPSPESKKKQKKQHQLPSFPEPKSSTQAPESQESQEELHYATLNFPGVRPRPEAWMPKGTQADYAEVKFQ
# [4] = biological target: cynomolgus Siglec-10 on the cell surface (cynomolgus); test: flow cytometry on live expi293 cells transfected with cynomolgus Siglec-10; FMO median 13824
# Sequence of cynomolgus Siglec-10 on the cell surface (cynomolgus) (chain, as listed by the source): as the sequence (F7GW74 entry or part of it) above, with S4N, K11E, M14T, H306R, G486R, D568E, S645F counted along it
# [5] = biological target: T1, human Siglec-10 on the cell surface; test: flow cytometry, human PBMC, CD14hi monocytes, without excess hIgG; FMO median 1244
# [6] = biological target: T1, human Siglec-10 on the cell surface; test: flow cytometry on live expi293 cells transfected with human Siglec-10; FMO median 14075
# [7] = biological target: cynomolgus Siglec-10 on the cell surface (cynomolgus); test: flow cytometry, cynomolgus PBMC, CD14hi monocytes, without excess hIgG
# [8] = biological target: human Siglec-10 extracellular domain recombinant protein (His or Fc tag) (human) (UniProt Q96LC7); test: ELISA, Siglec protein coated, biotinylated ONC-841, avidin-HRP
# [9] = biological target: T1, human Siglec-10 on the cell surface; test: cell-based or functional assay
# [10] = biological target: human Siglec-10 extracellular domain recombinant protein (His or Fc tag) (human) (UniProt Q96LC7); test: ELISA: Siglec-10 His coated, biotinylated ONC-841, avidin-HRP
# [11] = biological target: T1, human Siglec-10 on the cell surface; test: flow cytometry, human PBMC, monocytes, fluorescently labeled ONC-841 (upper left quadrant)
# [12] = biological target: recombinant His-tagged human Siglec-10 (ACROBiosystems) (human) (UniProt Q96LC7); test: ELISA: His-tagged human Siglec-10 coated, ONC-841 detected with goat anti-human antibody
# [13] = biological target: T2, Siglec-10 (Biacore analysis); test: Biacore
# [14] = biological target: T2, Siglec-10 (Biacore analysis); test: Biacore (data from a separate experiment); data from a separate experiment
# [15] = biological target: T1, human Siglec-10 on the cell surface; test: flow cytometry, Jurkat cells expressing human Siglec-10
Molecule,Median : Comp-APC-A [1],% positive cells [2] [%],Median : Comp-APC-A [3],Median : Comp-APC-A [4],Median : Comp-Alexa Fluor 488-A [5],Median : Comp-APC-A [6],Median : Comp-Alexa Fluor 488-A [7],Kd [8] [µg/mL],"EC50, ADCC reporter activity of anti-CD20 against Raji cells [9] [µg/mL]","EC50, ADCC reporter activity of cetuximab against B16 cells expressing human EGFR [9] [µg/mL]","IC50 (so in the source), ADCC reporter activity of ONC-392 against CTLA-4 expressing CHO cells [9] [µg/mL]",EC50 (read off the curve) [10] [µg/mL],% positive cells [11] [%],EC50 (read off the curve) [12] [µg/mL],koff [13] [s⁻¹],kon [13] [M⁻¹ s⁻¹],Kd [14] [nM],EC50 [15] [µg/mL],ADCC EC50 [9] [µg/mL],Kd [13] [nM]
ONC-841 (antibody),14200,51,13100,14500,7250,64200,1770,0.0225,0.5,0.3,0.08,0.02,79,0.009,,,,,,
"humanized 31F11 clone #21 (antibody, V domains shown, also called hu-VHv1VLv2) VH: QVTLKESGPALVKPTQTLTLTCTFSGFSLSTSGMGLSWIRQPPGKALEWLAHIYWDDDKRYNPSLKSRLTISKDTSKNQVVLTMTNMDPVDTATYYCVRGLYGNWFFDVWGQGTTVTVSS VL: DIVMTQSPATLSVSPGERATLSCKASQNVGTAVAWYQQKPGQAPRLLIYSASNRYTGVPARFSGSGSGTEFTLTISSLQSEDFAVYFCQQYSSYPLTFGGGTKVEIK",,,,,,,,,,,,,,,0.000589,272000,2.17,0.242,0.153,

# Now from value to molecule:
Median : Comp-APC-A [1],% positive cells [2] [%],Median : Comp-APC-A [3],Median : Comp-APC-A [4],Median : Comp-Alexa Fluor 488-A [5],Median : Comp-APC-A [6],Median : Comp-Alexa Fluor 488-A [7],Kd [8] [µg/mL],"EC50, ADCC reporter activity of anti-CD20 against Raji cells [9] [µg/mL]","EC50, ADCC reporter activity of cetuximab against B16 cells expressing human EGFR [9] [µg/mL]","IC50 (so in the source), ADCC reporter activity of ONC-392 against CTLA-4 expressing CHO cells [9] [µg/mL]",EC50 (read off the curve) [10] [µg/mL],% positive cells [11] [%],EC50 (read off the curve) [12] [µg/mL],koff [13] [s⁻¹],kon [13] [M⁻¹ s⁻¹],Kd [14] [nM],EC50 [15] [µg/mL],ADCC EC50 [9] [µg/mL],Kd [13] [nM],Molecule
,,,,,,,,,,,,,,0.000202,164000,,0.237,0.266,1.23,"humanized 31F11 clone #22 (antibody, V domains shown, also called hu-VHv2VLv2) VH: QVTLKESGPALVKPTQTLTLTCTFSGFSLSTSGMGLSWIRQPPGKALEWLAHIYWDDDKRYNPSLKSRLTISKDTSKNQVVLTMTNMDPVDTATYYCVRGLYGNWFFDVWGAGTTVTVSS VL: DIVMTQSPATLSVSPGERATLSCKASQNVGTAVAWYQQKPGQAPRLLIYSASNRYTGVPARFSGSGSGTEFTLTISSLQSEDFAVYFCQQYSSYPLTFGGGTKVEIK"
,,,,,,,,,,,,,,0.000197,131000,,0.237,0.342,1.5,"humanized 31F11 clone #23 (antibody, V domains shown) VH: QVTLKESGPALVKPTQTLTLTCTFSGFSLSTSGMGLSWIRQPPGKALEWLAHIYWDDDKRYNPSLKSRLTISKDTSKNQVVLTMTNMDPVDTATYYCARGLYGNWFFDVWGQGTTVTVSS VL: DIVMTQSPATLSVSPGERATLSCKASQNVGTAVAWYQQKPGQAPRLLIYSASNRYTGVPARFSGSGSGTEFTLTISSLQSEDFAVYFCQQYSSYPLTFGGGTKVEIK"
